Laboratory results: patent publication US20240209096A1 (INVETX, published 2024)
Positions count from the first letter of the chain named. Numbers in names are those of the source.

T1: canine FcRn (soluble large subunit p51 isoform X2 with 6xHis-tag, co-expressed with canine … (canine))
T1 construct: Heterodimer made by co-expression in CHO cells, purified on HISTRAP FF, >95% pure by SEC; Both entries hold a 19-residue signal peptide at the N-terminus that should be removed (residues 1-19); also called FcRn complex
T1 chain: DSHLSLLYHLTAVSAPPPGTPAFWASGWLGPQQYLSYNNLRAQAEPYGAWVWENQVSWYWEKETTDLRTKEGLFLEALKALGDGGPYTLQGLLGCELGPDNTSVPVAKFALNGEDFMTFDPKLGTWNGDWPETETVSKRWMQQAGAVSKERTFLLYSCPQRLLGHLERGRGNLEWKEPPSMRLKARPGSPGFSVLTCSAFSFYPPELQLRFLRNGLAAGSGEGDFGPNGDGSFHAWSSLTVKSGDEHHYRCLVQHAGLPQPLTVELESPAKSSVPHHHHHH
T1 b2m: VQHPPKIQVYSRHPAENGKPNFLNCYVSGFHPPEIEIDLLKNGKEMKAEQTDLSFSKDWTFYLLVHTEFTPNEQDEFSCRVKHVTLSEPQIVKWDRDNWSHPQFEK

B1: IgG with wild-type canine IgGB Fc (antibody)
heavy: EVQLVESGGDLVAPSQSLSITCTVSGMSLTSNSISWVRQPPGRGLEWLGTIWSNGGTDYTDAVKGRFTISRDNAKNTVYLQMNSLRAEDTAMYYCAQIYYYDADYLHWYFDFWGQGTLVTVSSASTTAPSVFPLAPSCGSTSGSTVALACLVSGYFPEPVTVSWNSGSLTSGVHTFPSVLQSSGLYSLSSMVTVPSSRWPSETFTCNVAHPASKTKVDKPVPKRENGRVPRPPDCPKCPAPEAAGGPSVFIFPPKPKDTLLIARTPEVTCVVVDLDPEDPEVQISWFVDGKQMQTAKTQPREEQFNGTYRVVSVLPIGHQDWLKGKQFTCKVNNKALPSPIERTISKARGQAHQPSVYVLPPSREELSKNTVSLTCLIKDFFPPDIDVEWQSNGQQEPESKYRTTPPQLDEDGSYFLYSKLSVDKSRWQRGDTFICAVMHEALHNHYTQESLSHSPG
light: EIVMTQSPASLSASQEEKVTITCRASEGISNNLAWYQQKPGQAPKLLIHATSSLQTGVPSRFSGSGSGTDFTLTISSLQPEDFATYYCQQGYQFPLTFGQGTKVEIKRNDAQPAVYLFQPSPDQLHTGSASVVCLLNSFYPKDINVKWKVDGVIQDTGIQESVTEQDKDSTYSLSSTLTMSSTEYLSHELYSCEITHKSLPSTLIKSFQRSECQRVD
notes: Full chains; canine IgGB constant domain with MALA mutations; variable domains of WO 2023/97275; also called Wild-type Fc
B2: IgG with canine IgGB Fc variant N434H, T286Y (antibody)
heavy: B1 heavy with T295Y, N445H
light: B1 light
notes: Full chains; canine IgGB constant domain with MALA mutations; variable domains of WO 2023/97275

What was measured:
[1] = molecular target: T1, canine FcRn (soluble large subunit p51 …); experiment: SPR, IgG on protein L chip, FcRn in flow, pH 5.9, 1:1 fit; pH 5.9, 1:1 kinetic fit
Protocol: (§1) The canine FcRn binding experiments at pH 5.9 and pH 7.4 were completed on a BIACORE™ T200 instrument. A Series S Protein L Sensor chip (Cytiva, Cat. No. BR29205137) was used to capture the antibody variants via the kappa (κ) light chain. The canine variants were captured onto the protein L chip at a flow rate of 10 μL/min for 60 seconds. Approximately 250 RUs of the variants were captured. For the low pH binding condition, 1×PBX-P+ (Cytiva, Cat. No. 28995084) was adjusted to pH 5.9. The canine FcRn was flowed over the sensor chip at 30 μL/min for 120 seconds contact time and 600 seconds dissociation time. Regeneration of the flow cells was completed by flowing over 10 mM glycine, pH 1.7 at 30 μL/min for 30 seconds. The data were evaluated by the BIACORE™ T200 Evaluation software (version 3.2.1) by fitting to a 1:1 kinetic interaction model.

[2] = molecular target: T1, canine FcRn (soluble large subunit p51 …); experiment: SPR, IgG on protein L chip, FcRn in flow, pH 5.9, 1:1 fit
Protocol: as §1

[3] = molecular target: T1, canine FcRn (soluble large subunit p51 …); experiment: SPR, IgG on protein L chip, FcRn in flow, pH 5.9, kinetic data
Protocol: as §1

[4] = molecular target: T1, canine FcRn (soluble large subunit p51 …); experiment: SPR, IgG on protein L chip, FcRn in flow, pH 7.4, steady state fit
Protocol: as §1
A subset of the Fc variants was tested for binding to canine FcRn at pH 7.4. For these experiments, 1×PBX-P+ (Cytiva, Cat. No. 28995084) was adjusted to pH 7.4. […] In addition, the pH 7.4 data were evaluated by the BIACORE™ T200 Evaluation software (version 3.2.1) by fitting to steady state affinity model. The kinetic binding data for the variants at pH 7.4 along with the binding data at pH 5.9 for these variants are shown in Table 7 below.

| Binder | Kd [1] [nM] | koff [1] [s⁻¹] | kon [1] [M⁻¹ s⁻¹] | Kd [2] [nM] | koff [2] [s⁻¹] | kon [2] [M⁻¹ s⁻¹] | Kd [3] [nM] | koff [3] [s⁻¹] | kon [3] [M⁻¹ s⁻¹] | Kd [4] [nM] |
| --- | --- | --- | --- | --- | --- | --- | --- | --- | --- | --- |
| B1 | 231 | 0.0927 | 285000 | – | – | – | – | – | – | – |
| B2 | – | – | – | 15.7 | 0.0318 | 2.04e+06 | 15.7 | 0.0318 | 2.04e+06 | 2170 |
